Here are results for five proteins from patent US20260258390.

To fix the notation:
B1: N74D/S99G/V102W/S126G/N198A/N212S/T254P (variant of sequence SEQ ID NO: 5) (protein)
chain: AQSVPWGISRVQAPAAHNRGLTGSGVKVAVLDTGISTHPDLNIRGGASFVPGEPSTQDGNGHGTHVAGTIAALDNSIGVLGVAPSAELYAVKVLGASGGGSWSSIAQGLEWAGNNGMHVANLSLGGPSPSATLEQAVNSATSRGVLVVAASGNSGAGSISYPARYANAMAVGATDQNNNRASFSQYGAGLDIVAPGVAVQSTYPGSTYASLSGTSMATPHVAGAAALVKQKNPSWSNVQIRNHLKNTATSLGSPNLYGSGLVNAEAATR
B2: N74D/S99G/V102W/S126G/D191E/N198G/N212S/T254P (variant of sequence SEQ ID NO: 4) (protein)
chain: B1 chain with D191E, A198G
B3: N74D/S97D/S126G/P204I/T254P/S259N (variant of sequence SEQ ID NO: 6) (protein)
chain: B1 chain with S97D, G99S, W102V, A198N, P204I, S212N, S259N
B4: N74D/S101A/V102W (control variant of WO1995010591; sequence SEQ ID NO: 3) (protein)
chain: B1 chain with G99S, S101A, G126S, A198N, S212N, P254T
B5: wild-type subtilisin of Bacillus lentus (SEQ ID NO: 2) (protein)
chain: B1 chain with D74N, G99S, W102V, G126S, A198N, S212N, P254T

Substitutions are numbered along the chain they refer to. In names and notes the source's numbering stands.

The data set has as its target T1, succinyl-L-Ala-L-Ala-L-Pro-L-Phe-p-nitroanilide (SEQ ID NO: 1).
T1 chain: AAPF
Take B1: the Km pH 8.6 (mM) is 0.05 mM, the Km pH 10 (mM) was 0.09 mM, the kcat pH 8.6 (% of wild-type) (% of wild-type) came to 503 and the kcat pH 10 (% half-life of wild-type) (% of wild-type) was found to be 723. Also, the kcat/Km pH 8.6 (% of wild-type) (% of wild-type) amounted to 6360 and the kcat/Km pH 10 (% wild-type) came to 10800 % wild-type.
Take B2: the Km pH 8.6 (mM) turned out to be 0.11 mM, the Km pH 10 (mM) amounted to 0.19 mM, the kcat pH 8.6 (% of wild-type) (% of wild-type) came to 579 and the kcat pH 10 (% half-life of wild-type) (% of wild-type) came to 719. Moreover, the kcat/Km pH 8.6 (% of wild-type) (% of wild-type) worked out at 3330 and the kcat/Km pH 10 (% wild-type) is 5100 % wild-type.
With B3, the Km pH 8.6 (mM) is 0.66 mM, the Km pH 10 (mM) is 0.52 mM, the kcat pH 8.6 (% of wild-type) (% of wild-type) was 55 and the kcat pH 10 (% half-life of wild-type) (% of wild-type) turned out to be 37. Further, the kcat/Km pH 8.6 (% of wild-type) (% of wild-type) came to 51 and the kcat/Km pH 10 (% wild-type) is 97 % wild-type.
Turning to B4, the Km pH 8.6 (mM) was 0.29 mM, the Km pH 10 (mM) amounted to 0.33 mM, the kcat pH 8.6 (% of wild-type) (% of wild-type) is 638 and the kcat pH 10 (% half-life of wild-type) (% of wild-type) came out at 554. In addition, the kcat/Km pH 8.6 (% of wild-type) (% of wild-type) was determined as 1390 and the kcat/Km pH 10 (% wild-type) is 2260 % wild-type.
As to B5, the Km pH 8.6 (mM) was determined as 0.63 mM, the Km pH 10 (mM) came to 1.34 mM, the kcat pH 8.6 (% of wild-type) (% of wild-type) worked out at 100 and the kcat pH 10 (% half-life of wild-type) (% of wild-type) turned out to be 100. In addition, the kcat/Km pH 8.6 (% of wild-type) (% of wild-type) is 100 and the kcat/Km pH 10 (% wild-type) is 100 % wild-type.
